T1: Fas-Fc (Mus musculus, UniProt P25446)
T1 construct: purchased R&D
T1 sequence (P25446 22-169 limits assumed): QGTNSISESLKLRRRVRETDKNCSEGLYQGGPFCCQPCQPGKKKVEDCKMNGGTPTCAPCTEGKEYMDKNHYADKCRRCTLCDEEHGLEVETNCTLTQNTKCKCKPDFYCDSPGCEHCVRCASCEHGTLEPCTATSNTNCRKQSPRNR

T2: Fas-Fc / Fas ligand binding (Mus musculus, UniProt P25446)
T2 construct: purchased R&D
T2 sequence (P25446 22-169 limits assumed): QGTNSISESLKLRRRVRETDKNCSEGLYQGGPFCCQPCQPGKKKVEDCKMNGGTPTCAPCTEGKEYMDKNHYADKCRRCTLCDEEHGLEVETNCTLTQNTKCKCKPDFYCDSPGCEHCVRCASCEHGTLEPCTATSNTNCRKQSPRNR

T3: Fas-Fc (extracellular part of Fas) (Mus musculus, UniProt P25446)
T3 construct: purchased R&D
T3 sequence (P25446 22-169 limits assumed): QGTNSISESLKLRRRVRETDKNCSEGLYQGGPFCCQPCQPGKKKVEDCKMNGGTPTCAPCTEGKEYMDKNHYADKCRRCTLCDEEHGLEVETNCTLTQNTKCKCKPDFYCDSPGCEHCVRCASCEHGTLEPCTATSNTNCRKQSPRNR


Legend:
Fas-Fc = molecular target: T1, Fas-Fc; assay: ELISA of Fas-Fc binding to coated synthetic polypeptides; details: peptides coated at 1 μg/ml, increasing Fas-Fc, OD 450 nm
Excerpt: The Met alpha but not beta chain binds to Fas (FIG. 1a). Various regions of the mouse Met cDNA corresponding to the alpha chain or the extra-cellular portion of the Met beta chain were cloned into expression vectors (pCRT7 TOPO/AlphaMet or pCRT7 TOPO/beta chain) and subjected to in vitro transcription/translation by a rabbit reticolucyte lysate translation system. Empty vector was included in each experiment as a control. The expressed proteins were labeled with ^35S-Methionine. Pull down assays were performed using Fas-Fc, a chimeric molecule which lacks the interacellular cytoplasmic domain and protein-A agarose as described in Wang et al., 2002. FIG. 1b is a schematic presentation of the Met alpha chain and its mutant version used to map the region interacting with Fas. The C-terminus of each construct contains a hexa-Histidine tag for ease of detection. Start cordon ATG was added to the N-terminally truncated constructs. The YLGA (SEQ ID NO:1) motif mutation was prepared by PCR, in which YLGA (SEQ ID NO:1) was replaced by DHER (SEQ ID NO:24). […] In vitro translated ^35S-methionine labeled truncated/mutated AlphaMet proteins were pulled down with 2 μg of Fas-Fc or the same amount of IgG. Lane 1: 10% of AlphaMet input; Lane 2: AlphaMet with IgG control; Lanes 3 to 8: pull down of various truncated AlphaMet proteins; N-terminal 1-106 residues; C-terminal truncated, residues 1-210; alpha chain, residues 1-306; alpha chain with transmembrane domain, 1-338; N-terminally truncated alpha chain, residues 100-306; and N-terminally truncated with addition of the transmembrane domain 100-338, respectively. FIG. 1d depicts the amino acid sequence alignment of alpha chain with FasL, determined using the CLUSTALW, SIM+LALNVIEW, and ALIGN at ExPASy Proteomic Tools (available on the internet at us.expresly.org/tools). The numbers indicate the amino acid residues of the indicated protein. […] Recombinant His-tagged AlphaMet or its mutant version were expressed in E. coli, purified with chromatography, and subjected to Fas-Fc (lanes labeled Fas) or control IgG pull down experiments, and detected by Western blot using anti-His antibody that recognizes C-terminal His. This antibody also recognizes the Fas-Fc which is also tagged at the C-terminus by His. […] Purified recombinant AlphaMet protein (approximately 10 μg) was mixed with Hepa 1-6 cells or Jurkat cell lysates and subjected to immunoprecicitation using anti-Fas antibody or control IgG followed by Western blot using anti His-tag antibody as a probe. […] Peptides (1 μg/ml) were coated into the 96-well microtiter plates in triplicate and after blocking with 1% BSA, increasing amounts of Fas-Fc were added as indicated. The control peptide was a scrambled 13 mer. After washing the wells, anti-human […]-HRP conjugates (1:20,000) were added to detect the bound Fas-Fc using TMD dye and the OD value was determined at a wavelength of 450 nm. One-way ANOVA was carried out for determination of statistical significance.
ELISA. Synthesized polypeptides (Genemed Synthesis, Inc. South San Francisco, Calif.) were dissolved in water and diluted in the coating buffer (0.05M of Sodium Carbonate, 0.02% of Sodium Azide, pH 9.6) to a final concentration of 1 ug/ml. One hundred microliter aliquots were added to coat each well of a 96-well microtitre plate. The coated plates were then washed with PBS-Tween (0.5%) three times. The plates were blotted and dried by tapping upside down on tissue paper. They were blocked using 200 μl of 1% of BSA in PBS solution followed by a 2 hour incubation. Plates were washed another three times, Fas-Fc was added, and the plates were incubated for another 2 hours. The plates were washed three times and anti-human IgM Fc HRP conjugates were included at a final concentration of 1:20,000, and incubated for 1 hour. Plates were washed three times again and ready-to-use TMD was added and incubated for 30 minutes. The color reaction was stopped by 2M of Sulfuric Acid. […]

[1] = molecular target: T2, Fas-Fc / Fas ligand binding; assay: Competition ELISA: coated Fas ligand, Fas-Fc added with increasing amounts of polypeptide; details: Fas ligand 1 μg/ml coated, Fas-Fc 1 μg/ml
Protocol: This antibody also recognizes Fas-Fc which is also tagged at the C-terminus by His. In FIG. 2b, a fixed amount of purified recombinant Fas-ligand was added to Fas-Fc in the absence or presence of increasing amounts of AlphaMet as indicated. Samples were subjected to pull down using proteinA agarose followed by Western blot using a polyclonal rabbit anti-FasL antibody. […] Fas ligand (1 μg/ml) was coated in the wells of a microtiter plate (triplicate wells) then 1 μg/ml of Fas-Fc was added in the absence or presence of an increasing amount of the indicated polypeptide. A 13 mer YLGA polypeptide derived from FasL also was synthesized and used. The control peptide was a scrambled 13 mer. Anti human IgM-HRP conjugates were used to detect the bound Fas-Fc. […] One-way ANOVA was carried out for determination of statistical significance. […] Cells (3×10^5) were plated in 24-well plates having Poly-L-Lysine pre-treated cover glass. 2 μg/ml of Fas ligand was added and the cells were incubated for 30 min on ice. Cells were then washed by PBS twice, and were subjected to immunostaining using anti-Fas ligand antibody and fluorescent microscopy. In Frame A, Fas ligand was not added, in B, only Fas ligand was added, in C-F, Fas ligand was added with different polypeptides as follows: AlphaMet, 12 mer YLGA, control peptide, and YLGA mutated AlphaMet, respectively.
ELISA. Synthesized polypeptides (Genemed Synthesis, Inc. South San Francisco, Calif.) were dissolved in water and diluted in the coating buffer (0.05M of Sodium Carbonate, 0.02% of Sodium Azide, pH 9.6) to a final concentration of 1 ug/ml. One hundred microliter aliquots were added to coat each well of a 96-well microtitre plate. The coated plates were then washed with PBS-Tween (0.5%) three times. The plates were blotted and dried by tapping upside down on tissue paper. They were blocked using 200 μl of 1% of BSA in PBS solution followed by a 2 hour incubation. Plates were washed another three times, Fas-Fc was added, and the plates were incubated for another 2 hours. The plates were washed three times and anti-human IgM Fc HRP conjugates were included at a final concentration of 1:20,000, and incubated for 1 hour. Plates were washed three times again and ready-to-use TMD was added and incubated for 30 minutes. The color reaction was stopped by 2M of Sulfuric Acid. Plates were applied to color read at a wave length of 450 nm.

[2] = molecular target: CFP-tagged and YFP-tagged Fas expressed in Hepa 1-6 cells; assay: cell-based or functional assay
[3] = molecular target: T3, Fas-Fc (extracellular part of Fas); assay: Fas-Fc pull down assay with protein-A agarose; type: binding; details: in vitro translated 35S-labeled proteins, autoradiography
Excerpt: The Met alpha but not beta chain binds to Fas (FIG. 1a). Various regions of the mouse Met cDNA corresponding to the alpha chain or the extra-cellular portion of the Met beta chain were cloned into expression vectors (pCRT7 TOPO/AlphaMet or pCRT7 TOPO/beta chain) and subjected to in vitro transcription/translation by a rabbit reticolucyte lysate translation system. Empty vector was included in each experiment as a control. The expressed proteins were labeled with ^35S-Methionine. Pull down assays were performed using Fas-Fc, a chimeric molecule which lacks the interacellular cytoplasmic domain and protein-A agarose as described in Wang et al., 2002. FIG. 1b is a schematic presentation of the Met alpha chain and its mutant version used to map the region interacting with Fas. The C-terminus of each construct contains a hexa-Histidine tag for ease of detection. Start cordon ATG was added to the N-terminally truncated constructs. The YLGA (SEQ ID NO:1) motif mutation was prepared by PCR, in which YLGA (SEQ ID NO:1) was replaced by DHER (SEQ ID NO:24). […] In vitro translated ^35S-methionine labeled truncated/mutated AlphaMet proteins were pulled down with 2 μg of Fas-Fc or the same amount of IgG. Lane 1: 10% of AlphaMet input; Lane 2: AlphaMet with IgG control; Lanes 3 to 8: pull down of various truncated AlphaMet proteins; N-terminal 1-106 residues; C-terminal truncated, residues 1-210; alpha chain, residues 1-306; alpha chain with transmembrane domain, 1-338; N-terminally truncated alpha chain, residues 100-306; and N-terminally truncated with addition of the transmembrane domain 100-338, respectively. FIG. 1d depicts the amino acid sequence alignment of alpha chain with FasL, determined using the CLUSTALW, SIM+LALNVIEW, and ALIGN at ExPASy Proteomic Tools (available on the internet at us.expresly.org/tools). The numbers indicate the amino acid residues of the indicated protein. […] Recombinant His-tagged AlphaMet or its mutant version were expressed in E. coli, purified with chromatography, and subjected to Fas-Fc (lanes labeled Fas) or control IgG pull down experiments, and detected by Western blot using anti-His antibody that recognizes C-terminal His. This antibody also recognizes the Fas-Fc which is also tagged at the C-terminus by His. […] Purified recombinant AlphaMet protein (approximately 10 μg) was mixed with Hepa 1-6 cells or Jurkat cell lysates and subjected to immunoprecicitation using anti-Fas antibody or control IgG followed by Western blot using anti His-tag antibody as a probe. […] After washing the wells, anti-human […]-HRP conjugates (1:20,000) were added to detect the bound Fas-Fc using TMD dye and the OD value was determined at a wavelength of 450 nm. […]

Row | Molecule | Fas binding by ELISA (Fas-Fc) | inhibition of FasL binding to Fas-Fc (ELISA) [1] | percent of fluorescent cells showing Fas capping [2] [%] | Fas binding in Fas-Fc pull down [3]
1 | YRGA | completely lost their Fas binding capacity |  |  | 
2 | YLRA | completely lost their Fas binding capacity |  |  | 
3 | RLGA | completely lost their Fas binding capacity |  |  | 
4 | FLGA [FLGA tetramer] | identical binding activity to that of the YLGA tetramer |  |  | 
5 | Met beta chain: extracellular region of Met beta chain (amino acids 308 to 968, with transmembrane portion) (protein) TREEVFNILQAAYVSKPGANLAKQIGASPSDDILFGVFAQSKPDSAEPVNRSAVCAFPIKYVNDFFNKIVNKNNVRCLQHFYGPNHEHCFNRTLLRNSSGCEARSDEYRTEFTTALQRVDLFMGRLNQVLLTSISTFIKGDLTIANLGTSEGRFMQVVLSRTAHLTPHVNFLLDSHPVSPEVIVEHPSNQNGYTLVVTGKKITKIPLNGLGCGHFQSCSQCLSAPYFIQCGWCHNQCVRFDECPSGTWTQEICLPAVYKVFPTSAPLEGGTVLTICGWDFGFRKNNKFDLRKTKVLLGNESCTLTLSESTTNTLKCTVGPAMSEHFNVSVIISNSRETTQYSAFSYVDPVITSISPRYGPQAGGTLLTLTGKYLNSGNSRHISIGGKTCTLKSVSDSILECYTPAQTTSDEFPVKLKIDLANRETSSFSYREDPVVYEIHPTKSFISGGSTITGIGKTLNSVSLPKLVIDVHEVGVNYTVACQHRSNSEIICCTTPSLKQLGLQLPLKTKAFFLLDGILSKHFDLTYVHNPVFEPFEKPVMISMGNENVVEIKGNNIDPEAVKGEVLKVGNQSCESLHWHSGAVLCTVPSDLLKLNSELNIEWKQAVSSTVLGKVIVQPDQNFAGLIIGAVSISVVVLLLSGLFLWMRKRKHKDLGSELVR |  |  |  | not the Met beta chain region bound specifically

More lines, main results first:

Row | Fas binding by ELISA (Fas-Fc) | inhibition of FasL binding to Fas-Fc (ELISA) [1] | percent of fluorescent cells showing Fas capping [2] [%] | Molecule | Fas binding in Fas-Fc pull down [3]
6 | strong Fas-binding activity | significantly inhibited FasL binding |  | HHIFLGATNYIY | 
7 |  |  | 30 | Jo2, monoclonal anti-Fas antibody | 
8 | bound Fas strongly | significantly inhibited FasL binding |  | AHSSYLGAVFNLT [YLGA-13 mer] | 
9 | bound Fas strongly | significantly inhibited FasL binding |  | FTAETPIQNVVLHGHHIYLGATNYIYVLNDKDLQKV [36 mer] | 
10 | strong Fas-binding activity | significantly inhibited FasL binding |  | TGHIYLGAVNRIY [13-mer derived from PlexinA4] | 
11 | very active in binding to Fas | inhibiting FasL binding to Fas |  | FLGAV | 

From patent publication US20070184522A1, “Cell death modulation via antagonists of Fasl and Fas activation” (University of Pittsburgh of the Commonwealth System of …, priority 2004, published 2007)
